Experiment: soluble on expression in E. coli; label from the status in PepcDB or PDB records

Soluble on expression in E. coli, not soluble:
MSDISRGDIRVKGFTDSEMDFQLIRQLGSSSYRAASVGECLNIANTMKNEDPEEWVRQFERLAEWQKKDGLERMVKNHVISGREQLFKASNSFRAAEYYSPPSSEHHRKLGLNSADCFCTAISSMDIHFENHSIPYKNINLPCYFISPANDGEKRDTVMIVSGFDGTLEEEFLMRGLAAVERGYNVIHFAGPGQMDVFRKYPDTYFEPDFEQVVKRIINYFEFRQEINMAKLTLMGISFGGYFATRAASHEPRIKVLIANSPILDLHAYMCSFVKMDPCEMPDSEDFSINDLPSIPNEVMPPQLKAQTEHLIRRFGQPTFKATFHYLREFTVGDSLNHIKIPCLALLGSGEGGEPGKQFAEFCKITNSAQYEFSDFEGAGSHCQVGNVSYSNAVVYDWLDSL
MQSSKVVLLEPRTYSEAQGIADHLKGRRAVVINLQRMSTDQAVRIVDFLSGTVYAIGGDIQKIGPKTFMCTPENVDIVGAISELFGEEEETNIKRWLEHHHHHH
MGSDKIHHHHHHMDIRHLRYFVSIVDNDFNLSRASLNLYVSQPALSMMISDFENKEGVQLFKRAQGKIVGLTYVGENYYRDAKEVIKKYNEMHSNLHKSIEQIKGHISIGIPPLILSVVFSEVMPKLILNNPEINFTIKELGAYLLKSDLLLENIDFAVLLNPERISKNIIESYEIHRSELSLFLSPKHHLSAKENITWRDLHGEKIVIFDQTFMIHHQLVESFERHNVYPNIVLKSSSWDFLLYSVKINESLLTILPLPMYEQYKSTEFICRRMEEAIPWSVTLCRLKKNCYTNVEEYIFDSLLKAFKP
IFNVPFGLNINLLPQYHMYTTQEAKDKIYYYSGNKVGFDIGASAQIGYMWQVTDNFGISLLGELGYSFDSFNANFDTAKVENPNDITGQIDAPEGTQKLGSASFYTHNLKIGILPKFNIKAFSIGIGLGIIVPMAITQNWKDEAAKTLFKDASTKFMSSVGFYGKLTFDYSIFFTEKIAMNIGLYTGVDAIGSINTTINNTSLNQGAHSEAPLLSYDIGLQLGFRFGPKAFN
MLVSEMHGEVEAVKVGTEVQGRVLHWVYLYYYRNLLFDAGCPNTAQEVFEHFKGREIKAVLITHYHEDHIGAVNLFKEITDVYVPEESLEILRNPPDIPKYRKIGWGQPEKIEGVKVAKEVMKFDDVEVRMIKTPGHSFDHVSYLVDDKLFCGDLVINTAQMVCMREENLLKTIESIEKVLKYDFNYAYTGVGVASRDEVVEYLNYLKGLKEKAEMLYAEGKTIDEIVAACFPNPSQKAILMEFVSEKEWARENMVKSLLGLPRE
MAQLYYKYGTMNSGKTIEILKVAHNYEEQGKPVVIMTSALDTRDGFGIVSSRIGMRREAIPISNDMDIFTFIAQLEEKPYCVLIDESQFLSKQNVYDLARVVDELNVPVMAFGLKNDFQNNLFEGSKHLLLLADKIDEIKTICQYCSKKATMVLRTENGKPVYEGDQIQIGGNETYIPVCRKHYFNPDI
MKTVPPVHRIALLFNGSKIYDRGIISGIGNYLSSTRVSWDLFLEEDFLCRLKGIERWQGDGIIADFDDPLIGEALAGIRLPVVAVGGSYQDERAYPKGIPYVATDNHALIKAAYEHLIEAGLTRFACFSLPEAQANRWAQEREKAFRHLLQRDGLHAEVYRGLGTSAPLWDSAVEQQITWLQSLPKPIGIIAVTDARARQLLQACLTAGIAVPEQVALIGIDNDPLTRTLTRVPLSSVIQGTETMGRTAARLLHQLLHGMPSSGTHILIPPDAVNVQASSLHQPLGDPYVMQALLFIRQYACQGIKTAQVAAYVGVSRSALESHFRRVRGCSVHDEILRFKLAAAAHGLENTDSAIADIARDCGFRSAQYLHTVFRREFGCTPREYLQGANAALQ
MTTIPVTSIAAEPAVSCSTCAACCCQLEVMLITDTGVPERFIDTDDWGGEVMRRLDDGWCAALDRDSMRCSIYELRPLICREFELGEADCLSERRGIATAYRLEHHHHHH
MIKWGFIGCGEVTKTKSGPAFQKVEHSEVVAVMSRDGAKAKAYAKERGIRKWYDDAQELIDDPEVNAIYIATPPSSHATYAIMAMKAGKPAYIEKPMAVTYEECTRINRISKETGVPCFVAYYRRYLPYFQKVKEMVENGSIGNVINVQVRFAQPPRDLDYNRENLPWRVQADIAGGGYFYDLAPHQIDLLQDMFGCILEASGYKSNRGGLYPAEDTLSACFQFDNGLVGSGSWCFVAHDSAREDRIEIIGDKGMICFSVFTYEPIGLHTERGREEICIGNPEHVQQPLIQAVVDHLLGKSVCSCDGESATLTNWVMDKILGKL
MGSDKIHHHHHHMKHAYLIIAHNEFEILKRLIQALDDERNDIYIHFDRKLNHYPDCRTSYAKLTFLEERMDVRWGDISVVDAEFALFDEAYRRGEYSYYHLLSGVDMPLKTQNYIHRFFEKNAGKEFVGYYQGNISKEIDRKVCRWHLFPKSFKETEGGLAVTKRVLRAGCVRLQSLLGIRRNKDINFRKGTQWLSISNELVGYLLQQQKEVRRVYTHTFCADEIFVQTICWNSSFRDRVYDMHDEGHGCLRMIGWKDNQLEEWKEKDFEILMNSEALFARKFSIRHIEVVDQILNEISK
MGSDKIHHHHHHMKVAYVIGGLPFGGVESWLLDLARHVSKTSDFECRVFNVSGTGVKMPEYISSGVDVVCAGNSLDSIATHRIDTVLRLRSQLVEYAPDIIHTLHFSGDYCGRLASIGLGVPVVTHLRNIKCERKLRRRLANKLLSFFTDMYLSVSRAVADMVADDHNIAKRPSRVIYNAVDPQKLAVEPHDLTAMYGVSGRIVVGVGRYVGQKNFDLLLRALRLVLDEGHDISVVLVGEGGERPHLERLIRELSLEGHAVLTGYRQDVPRFLRASYALAMPSDFEGLPITHLEAMFCGLPAIVSRHVPSLEIAREASLVCKRSPESIAQCIIRLLEDEKLHSTLSNTGSRIASEHTMDLYIKTLKGIYDELASRGKEI
MGSDKIHHHHHHMNLEEENTIFKPLYSLKHSPINAYFSKNSDDFVVRERPLYEFSGKGEHLILHINKKDLTTNEALKILSEASGVKIRDFGYAGLKDKQGSTFQYLSMPKKFESFLSNFSHPKLKILEIFTHENKLRIGHLKGNSFFIRLKKVLPSDALKLEQALMNLDKQGFANYFGYQRFGKFGDNYKEGLEILRGKKMKNVKMKEFLISAFQSELFNRYLSKRVELSHFANDFSEKELIQIYKISKEEAKELKKQEQFFKLLKGEVLGHYPFGKCFLCEDLSAELGRFKARDISAMGLLIGAKAYETGEGLALNLENEIFKDTLEFKAKMQGSRRFMWGYLEELKWRYDEEKAHFCIEFFLQKGSYATVVLEEILHKNLFE
QLERGQEKQALEQAILARTDAPYQSLASVLDNNDWREESVIGVKVQAEAKPEPLPVVLLDNQTFQGKVGYLAYQVVSVGQDPITLALLELGFVEGLRTRDSLPTVTTLTSPTNVTGRLYRKSMNPLSSELMPEMGEGIRVQNLNISELNELLNVELMPAVLQPDNLENWAYPFPWNPLPLTSAKHFGYAVQ
MGSDKIHHHHHHMAPYPYKVQTTVPELQYENFDGAKFGYMFWPVQNGTNEVRGRVLLIHGFGEYTKIQFRLMDHLSLNGYESFTFDQRGAGVTSPGRSKGVTDEYHVFNDLEHFVEKNLSECKAKGIPLFMWGHSMGGGICLNYACQGKHKNEISGYIGSGPLIILHPHTMYNKPTQIIAPLLAKFLPRVRIDTGLDLKGITSDKAYRAFLGSDPMSVPLYGSFRQIHDFMQRGAKLYKNENNYIQKNFAKDKPVIIMHGQDDTINDPKGSEKFIQDCPSADKELKLYPGARHSIFSLETDKVFNTVFNDMKQWLDKHTTTEAKP

Soluble on expression in E. coli, soluble:
MGEIQVVAFRLGDEEFCLEISKVREIKEMMPITRVPNAPDFVEGVINLRGQITTVINLKKLLGYYDDGDLSNKKIIIAEVNGEIVGVIVDSVSDVITLTEDQIEQPPKTLASRVDMKAIKGIAKINNGERLLIMLDLDKLIGESF
SLKYEDINENTIKITLSFDDLTDYDIKLSDFFGNQEVIEQFFYELVDELGLENRFGNVGMLTFQIQPFPQGVHMIVHEEAMLGEGGEIPDDPEEFEELMTGFYNKLNEIGADMARERGITDFKPGLGLPGTKKDEAEQEPDFIYYSIRYEDIMSVLTGIKNVKFADEESEFYRYDGNFYLVVLDNQKEKGKMHVESTRSRMMEYGEATKMSREFLQEYGECLIATRALDVLRKI
MEHHHHHHATNLRGVMAALLTPFDQQQALDKASLRRLVQFNIQQGIDGLYVGGSTGEAFVQSLSEREQVLEIVAEEAKGKIKLIAHVGCVSTAESQQLAASAKRYGFDAVSAVTPFYYPFSFEEHCDHYRAIIDSADGLPMVVYNIPALSGVKLTLDQINTLVTLPGVGALKQTSGDLYQMEQIRREHPDLVLYNGYDNIFASGLLAGADGGIGSTYNIMGWRYQGIVKALKEGDIQTAQKLQTECNKVIDLLIKTGVFRGLKTVLHYMDVVSVPLCRKPFGPVDEKYLPELKALAQQLMQER
MGHHHHHHSHMLSVHTDMASVTKAMAAPESGLEVRDRMWLKITIPNAFLGSDVVDWLYHHVEGFPERREARKYASGLLKAGLIRHTVNKITFSEQCYYVFGDLSGGCESYLVNLSLNDNDGSSGASDQDTLAPLPGATPWPLLPTF
MGHHHHHHSHMRKLVIPKYYGRPSIGLALFGCTNRPFYHVCVFPDRALGRRYEGNILEQVGTFDPLPNQKNEKLVALNFGRLKYWIGERNAHISVPVLELLGERRNCLSGLFPIHPKSFIRAKDNRALIADQQLKVAAEAAEAEKVAQEQASTGAAATSHPQ
MSLTMNSEDKFKILQIADLHFSTGYGKCLDPQPPSSAKGCKADSRTLEFINKVLDLEKPDMVVLTGDQIFGDASPDLESSAFKALNPFVERKIPFAITVGNHDDEGSLKREEIMGLYADMPYSVAAMGPASIDGFGNYVVTVQGKSSKATALSLYFVDSHAYSKTPKVTPGYDWIKENQLIYLKQEAESIQNSVEKYRKSNKIPLAMAFFHIPLPEFRNLNQPFIGENREGVTAPRYNSGARQVLSEIGVSVASVGHDHCNDYCLQDTQQSLSPGDNKMWLCFGGGAGLGGYGGYNGYIRRMRVYELDTSKGEIKTWKRTEDNPGNIIDEQVLVSNGDVVNEGHHHHHH
MSLHIHILGICGTFMGGVAMLARQLGHKVTGSDANVYPPMSTMLEAQGIEIIEGFDPVQLEPKPDLVVIGNAMSRGNPCVEYVLNHNLRYTSGPQWLQDFLLHDRWVIAVSGTHGKTTTSSMIAWVLEHCGYQPGFLVGGVLGNFGISARLGESMFFVVEADEYDSAFFDKRSKFVHYHPRTLVMNNLEFDHADIFDNLEAIKRQFHHLVRTVPGNGRILAPKQDEALADVLQRGCWSETEFSGEQGEWQAEKITADGSQFHVLLKGERVGQVNWSLVGDHNVSNALMAIAAARHVGVAPELACEALGLFVNTKRRLELKGEINGVTVYDDFAHHPTAIELTLGGLRNKVGDKKIIAVLEPRSATMKLGVHKETLAASLHSADSVYLYQPSNIPWSVEEVAKQCQQPAQVSANMDEFVAMIAKEAQAGDQILVMSNGGFEGIHGKLLAALQQKEGHHHHHH
MSLYQRCFDNASETLFVAGKTPRLSRFAFSDDPKWESGHHVHDNETELIYVKKGVARFTIDSSLYVAHADDIVVIERGRLHAVASDVNDPATTCTCALYGFQFQGAEENQLLQPHSCPVIAAGQGKEVIKTLFNELSVILPQSKNSQTSSLWDAFAYTLAILYYENFKNAYRSEQGYIKKDVLIKDILFYLNNNYREKITLEQLSKKFRASVSYICHEFTKEYRISPINYVIQRRMTEAKWSLTNTELSQAEISWRVGYENVDHFAKLFLRHVGCSPSDYRRQFKNCFAEQEILSEFPQPVSLVGEGGSHHHHHH
